# Source: article PMC3426363 (Pharmaceutical research, 2011)
# Like-named read-outs stand apart in the source and are kept apart here.
# T1: UGT1A3 (Homo sapiens, UniProt P35503)
# T1 sequence (P35503 29-534): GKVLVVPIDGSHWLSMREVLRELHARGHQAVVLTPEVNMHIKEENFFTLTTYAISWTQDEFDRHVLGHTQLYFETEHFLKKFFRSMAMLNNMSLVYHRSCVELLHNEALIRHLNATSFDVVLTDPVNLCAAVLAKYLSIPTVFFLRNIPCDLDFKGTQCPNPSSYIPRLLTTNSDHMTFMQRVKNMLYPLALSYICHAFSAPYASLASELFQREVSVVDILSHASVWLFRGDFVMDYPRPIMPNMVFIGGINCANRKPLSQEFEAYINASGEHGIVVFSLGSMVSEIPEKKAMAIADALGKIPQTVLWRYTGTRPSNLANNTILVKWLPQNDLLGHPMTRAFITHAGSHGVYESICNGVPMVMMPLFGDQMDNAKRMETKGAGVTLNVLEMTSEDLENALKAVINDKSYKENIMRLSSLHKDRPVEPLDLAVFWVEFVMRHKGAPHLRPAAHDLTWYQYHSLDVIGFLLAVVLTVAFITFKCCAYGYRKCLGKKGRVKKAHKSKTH
# T2: UGT1A9 (Homo sapiens, UniProt O60656)
# T2 sequence (O60656 26-530): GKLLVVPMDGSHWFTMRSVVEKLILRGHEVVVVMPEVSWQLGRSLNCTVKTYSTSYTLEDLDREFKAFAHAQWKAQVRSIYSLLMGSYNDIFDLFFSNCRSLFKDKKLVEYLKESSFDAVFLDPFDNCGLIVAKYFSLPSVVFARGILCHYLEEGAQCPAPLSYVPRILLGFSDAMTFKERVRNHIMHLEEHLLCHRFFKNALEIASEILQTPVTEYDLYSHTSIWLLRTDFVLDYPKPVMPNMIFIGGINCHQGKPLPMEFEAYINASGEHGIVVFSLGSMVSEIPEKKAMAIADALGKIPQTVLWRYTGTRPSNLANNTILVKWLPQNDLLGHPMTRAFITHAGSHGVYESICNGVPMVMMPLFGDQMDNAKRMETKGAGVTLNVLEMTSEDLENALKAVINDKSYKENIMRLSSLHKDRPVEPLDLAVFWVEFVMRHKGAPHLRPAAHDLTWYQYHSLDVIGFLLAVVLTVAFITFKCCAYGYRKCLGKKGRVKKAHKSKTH
# T3: UGT1A1 (Homo sapiens, UniProt P22309)
# T3 sequence (P22309 26-533): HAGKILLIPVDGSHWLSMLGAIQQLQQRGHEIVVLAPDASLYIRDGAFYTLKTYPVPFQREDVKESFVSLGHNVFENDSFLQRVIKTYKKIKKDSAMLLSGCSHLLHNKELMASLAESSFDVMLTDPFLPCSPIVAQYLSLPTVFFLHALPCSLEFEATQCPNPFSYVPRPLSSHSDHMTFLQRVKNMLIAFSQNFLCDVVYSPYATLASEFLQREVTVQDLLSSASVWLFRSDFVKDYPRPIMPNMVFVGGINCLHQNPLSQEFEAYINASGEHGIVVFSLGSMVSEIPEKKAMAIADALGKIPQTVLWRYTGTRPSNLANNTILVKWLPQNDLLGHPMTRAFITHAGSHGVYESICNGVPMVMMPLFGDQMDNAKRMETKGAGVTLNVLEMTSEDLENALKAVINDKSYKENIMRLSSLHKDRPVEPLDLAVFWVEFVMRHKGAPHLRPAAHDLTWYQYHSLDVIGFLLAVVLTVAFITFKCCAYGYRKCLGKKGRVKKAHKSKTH
# T4: UGT1A7 (Homo sapiens, UniProt Q9HAW7)
# T4 sequence (Q9HAW7 26-530): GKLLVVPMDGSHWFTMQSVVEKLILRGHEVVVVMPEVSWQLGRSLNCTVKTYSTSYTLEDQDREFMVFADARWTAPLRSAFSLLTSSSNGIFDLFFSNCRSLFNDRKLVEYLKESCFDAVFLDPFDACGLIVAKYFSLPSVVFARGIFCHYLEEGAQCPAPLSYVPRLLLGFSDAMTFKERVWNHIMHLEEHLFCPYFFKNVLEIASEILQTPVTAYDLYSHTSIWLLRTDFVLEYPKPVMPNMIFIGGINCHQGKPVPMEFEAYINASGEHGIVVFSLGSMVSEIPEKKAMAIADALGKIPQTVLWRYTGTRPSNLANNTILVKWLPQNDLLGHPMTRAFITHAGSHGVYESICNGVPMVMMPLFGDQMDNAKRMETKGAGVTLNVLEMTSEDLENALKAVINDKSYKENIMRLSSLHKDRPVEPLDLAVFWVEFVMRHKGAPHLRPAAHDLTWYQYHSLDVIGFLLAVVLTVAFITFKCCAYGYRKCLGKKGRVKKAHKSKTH
# T5: UGT1A10 (Homo sapiens, UniProt Q9HAW8)
# T5 sequence (Q9HAW8 26-530): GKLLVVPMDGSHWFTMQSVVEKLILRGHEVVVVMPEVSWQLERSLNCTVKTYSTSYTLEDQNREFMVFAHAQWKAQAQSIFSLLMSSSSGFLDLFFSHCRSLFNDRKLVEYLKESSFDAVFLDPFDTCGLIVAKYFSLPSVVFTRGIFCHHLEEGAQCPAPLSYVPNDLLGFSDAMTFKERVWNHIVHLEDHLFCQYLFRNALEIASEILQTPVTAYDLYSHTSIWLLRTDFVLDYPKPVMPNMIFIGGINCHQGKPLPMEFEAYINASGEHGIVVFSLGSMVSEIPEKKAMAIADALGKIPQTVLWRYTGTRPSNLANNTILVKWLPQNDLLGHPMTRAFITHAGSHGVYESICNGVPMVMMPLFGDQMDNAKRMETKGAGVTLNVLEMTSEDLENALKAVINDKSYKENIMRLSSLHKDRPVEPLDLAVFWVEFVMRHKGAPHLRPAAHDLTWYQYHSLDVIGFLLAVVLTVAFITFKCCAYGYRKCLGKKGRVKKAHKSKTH
# Key:
# UGT1A3 = biological target: T1, UGT1A3; test: UGT1A3 glucuronidation kinetics of flavonols; type: in vitro ADME; settings: substrate inhibition constant
# UGT1A9 = biological target: T2, UGT1A9; test: UGT1A9 glucuronidation kinetics of flavonols; type: in vitro ADME
# UGT1A1 [1] = biological target: T3, UGT1A1; test: UGT1A1 glucuronidation kinetics of flavonols; type: in vitro ADME; settings: for Ks: substrate inhibition constant
# UGT1A7 = biological target: T4, UGT1A7; test: UGT1A7 glucuronidation kinetics of flavonols; type: in vitro ADME; settings: formation of 3-O-glucuronide, substrate inhibition constant
# UGT1A1 [2] = biological target: T3, UGT1A1; settings: cited from earlier work
# UGT1A10 = biological target: T5, UGT1A10; test: UGT1A10 glucuronidation kinetics of flavonols; type: in vitro ADME; settings: substrate inhibition constant
# [3] = substrate: O=c1c(O)c(-c2ccc(O)cc2)oc2cc(O)cc(O)c12; test: UGT1A1 glucuronidation kinetics of flavonols; type: in vitro ADME, human; settings: other: UGT1A1; formation of 7-O-glucuronide; pH 6.5
# [4] = substrate: O=c1c(O)c(-c2ccccc2)oc2cc(O)cc(O)c12; test: UGT1A1 glucuronidation kinetics of flavonols; type: in vitro ADME, human; settings: other: UGT1A1, pH 6.5
# [5] = substrate: O=c1c(O)c(-c2ccc(O)cc2)oc2cc(O)ccc12; test: UGT1A1 glucuronidation kinetics of flavonols; type: in vitro ADME, human; settings: other: UGT1A1, pH 6.5
# [6] = substrate: O=c1c(O)c(-c2ccccc2)oc2cc(O)ccc12; test: UGT1A1 glucuronidation kinetics of flavonols; type: in vitro ADME, human; settings: other: UGT1A1, pH 6.5
# [7] = substrate: O=c1c(O)c(-c2ccc(O)cc2)oc2cc(O)cc(O)c12; test: UGT1A3 glucuronidation kinetics of flavonols; type: in vitro ADME, human; settings: other: UGT1A3; formation of 7-O-glucuronide; pH 6.5
# [8] = substrate: O=c1c(O)c(-c2ccccc2)oc2cc(O)cc(O)c12; test: UGT1A3 glucuronidation kinetics of flavonols; type: in vitro ADME, human; settings: other: UGT1A3, pH 6.5
# [9] = substrate: O=c1c(O)c(-c2ccccc2)oc2cc(O)ccc12; test: UGT1A3 glucuronidation kinetics of flavonols; type: in vitro ADME, human; settings: other: UGT1A3, pH 6.5
molecule,measurement,setting,value
"O=c1c(O)c(-c2ccccc2)oc2cc(O)ccc12 [3,7DHF, 3,7-dihydroxyflavone]",Ks,UGT1A3; formation of 3-O-glucuronide,100.05 ± 94.80 µM
same,Ks,UGT1A3; formation of 7-O-glucuronide,50.00 ± 80.17 µM
same,Ks,"UGT1A9; formation of 3-O-glucuronide, substrate inhibition constant",30.13 ± 7.11 µM
same,Vmax,UGT1A9; formation of 7-O-glucuronide,2.04 nmol/mg/min
same,Ks/Km ratio,UGT1A1 [1]; 3-O-glucuronidation,0.38
same,Ks/Km ratio,UGT1A1 [1]; 7-O-glucuronidation,1.16
same,Vmax,UGT1A1 [1]; formation of 3-O-glucuronide,1.02 nmol/mg/min
same,Ks,UGT1A1 [1]; formation of 3-O-glucuronide,0.60 ± 0.38 µM
same,Vmax,UGT1A1 [1]; formation of 7-O-glucuronide,3.04 nmol/mg/min
same,Ks,UGT1A1 [1]; formation of 7-O-glucuronide,1.21 ± 0.23 µM
same,Ks,UGT1A7,309.17 ± 127.39 µM
C#C[C@]1(O)CC[C@H]2[C@@H]3CCc4cc(O)ccc4[C@H]3CC[C@@]21C [ethinylestradiol],Km,UGT1A1 [2]; reported value,49.8 µM
same,Ks/Km ratio,UGT1A1 [2]; substrate inhibition at high concentrations of UDPGA,1.61
"O=c1c(O)c(-c2ccc(O)cc2)oc2cc(O)cc(O)c12 [3,5,7,4’QHF, 3,5,7,4’-tetrahydroxyflavone]",Ks,UGT1A3; formation of 7-O-glucuronide,7.52 ± 9.58 µM
same,Ks,UGT1A1 [1]; formation of 7-O-glucuronide,2.81 ± 0.67 µM
same,Ks,UGT1A10; formation of 3-O-glucuronide,30.01 ± 8.00 µM
same,Ks,UGT1A10; formation of 7-O-glucuronide,51.37 ± 27.15 µM
UGT1A1 (Homo sapiens) (protein) HAGKILLIPVDGSHWLSMLGAIQQLQQRGHEIVVLAPDASLYIRDGAFYTLKTYPVPFQREDVKESFVSLGHNVFENDSFLQRVIKTYKKIKKDSAMLLSGCSHLLHNKELMASLAESSFDVMLTDPFLPCSPIVAQYLSLPTVFFLHALPCSLEFEATQCPNPFSYVPRPLSSHSDHMTFLQRVKNMLIAFSQNFLCDVVYSPYATLASEFLQREVTVQDLLSSASVWLFRSDFVKDYPRPIMPNMVFVGGINCLHQNPLSQEFEAYINASGEHGIVVFSLGSMVSEIPEKKAMAIADALGKIPQTVLWRYTGTRPSNLANNTILVKWLPQNDLLGHPMTRAFITHAGSHGVYESICNGVPMVMMPLFGDQMDNAKRMETKGAGVTLNVLEMTSEDLENALKAVINDKSYKENIMRLSSLHKDRPVEPLDLAVFWVEFVMRHKGAPHLRPAAHDLTWYQYHSLDVIGFLLAVVLTVAFITFKCCAYGYRKCLGKKGRVKKAHKSKTH,Km,[3],0.13 ± 0.03 µM
same,Vmax,[3],1.38 ± 0.14 nmol/mg/min
same,Vmax/Km,[3],10620 µL/min/mg
same,Km,[4]; formation of 3-O-glucuronide,0.31 ± 0.10 µM
same,Vmax,[4]; formation of 3-O-glucuronide,0.82 ± 0.14 nmol/mg/min
same,Vmax/Km,[4]; formation of 3-O-glucuronide,2650 µL/min/mg
same,Km,[4]; formation of 7-O-glucuronide,0.51 ± 0.08 µM
same,Vmax,[4]; formation of 7-O-glucuronide,4.59 ± 0.46 nmol/mg/min
same,Vmax/Km,[4]; formation of 7-O-glucuronide,9000 µL/min/mg
same,Km,[5]; formation of 3-O-glucuronide,0.30 ± 0.05 µM
same,Vmax,[5]; formation of 3-O-glucuronide,0.68 ± 0.05 nmol/mg/min
same,Vmax/Km,[5]; formation of 3-O-glucuronide,2270 µL/min/mg
same,Km,[5]; formation of 7-O-glucuronide,0.43 ± 0.10 µM
same,Vmax,[5]; formation of 7-O-glucuronide,1.08 ± 0.13 nmol/mg/min
same,Vmax/Km,[5]; formation of 7-O-glucuronide,2520 µL/min/mg
same,Km,[6]; formation of 3-O-glucuronide,1.57 ± 1.09 µM
same,Vmax,[6]; formation of 3-O-glucuronide,1.02 ± 0.54 nmol/mg/min
same,Vmax/Km,[6]; formation of 3-O-glucuronide,650 µL/min/mg
same,Km,[6]; formation of 7-O-glucuronide,1.04 ± 0.19 µM
same,Vmax,[6]; formation of 7-O-glucuronide,3.04 ± 0.42 nmol/mg/min
same,Vmax/Km,[6]; formation of 7-O-glucuronide,2920 µL/min/mg
UGT1A3 (Homo sapiens) (protein) GKVLVVPIDGSHWLSMREVLRELHARGHQAVVLTPEVNMHIKEENFFTLTTYAISWTQDEFDRHVLGHTQLYFETEHFLKKFFRSMAMLNNMSLVYHRSCVELLHNEALIRHLNATSFDVVLTDPVNLCAAVLAKYLSIPTVFFLRNIPCDLDFKGTQCPNPSSYIPRLLTTNSDHMTFMQRVKNMLYPLALSYICHAFSAPYASLASELFQREVSVVDILSHASVWLFRGDFVMDYPRPIMPNMVFIGGINCANRKPLSQEFEAYINASGEHGIVVFSLGSMVSEIPEKKAMAIADALGKIPQTVLWRYTGTRPSNLANNTILVKWLPQNDLLGHPMTRAFITHAGSHGVYESICNGVPMVMMPLFGDQMDNAKRMETKGAGVTLNVLEMTSEDLENALKAVINDKSYKENIMRLSSLHKDRPVEPLDLAVFWVEFVMRHKGAPHLRPAAHDLTWYQYHSLDVIGFLLAVVLTVAFITFKCCAYGYRKCLGKKGRVKKAHKSKTH,Km,[7],3.30 ± 3.10 µM
same,Vmax,[7],0.86 ± 0.35 nmol/mg/min
same,Vmax/Km,[7],260 µL/min/mg
same,Km,[8]; formation of 3-O-glucuronide,0.84 ± 0.18 µM
same,Vmax,[8]; formation of 3-O-glucuronide,0.17 ± 0.01 nmol/mg/min
same,Vmax/Km,[8]; formation of 3-O-glucuronide,200 µL/min/mg
same,Km,[8]; formation of 7-O-glucuronide,2.12 ± 1.24 µM
same,Vmax,[8]; formation of 7-O-glucuronide,3.44 ± 0.84 nmol/mg/min
same,Vmax/Km,[8]; formation of 7-O-glucuronide,1620 µL/min/mg
same,Km,[9]; formation of 3-O-glucuronide,8.81 ± 2.72 µM
same,Vmax,[9]; formation of 3-O-glucuronide,0.18 ± 0.02 nmol/mg/min
same,Vmax/Km,[9]; formation of 3-O-glucuronide,20 µL/min/mg
same,Km,[9]; formation of 7-O-glucuronide,7.02 ± 3.76 µM
same,Vmax,[9]; formation of 7-O-glucuronide,1.89 ± 0.36 nmol/mg/min
same,Vmax/Km,[9]; formation of 7-O-glucuronide,270 µL/min/mg
